Measured values: patent US20240093191A1, “COMPOSITIONS AND METHODS FOR TREATING DISEASE ASSOCIATED WITH DUX4 OVEREXPRESSION” (RESEARCH INSTITUTE AT NATIONWIDE CHILDREN'S HOSPITAL, priority 2021, published 2024)

B1: U6.mir-675F: U6 mir-675 construct with flanking sequences similar to H1.mir-675 (nucleic acid)
DNA: GACGCCGCCATCTCTAGGCCCGCGCCGGCCCCCTCGCACAGACTTGTGGGAGAAGCTCGGCTACTCCCCTGCCCCGGTTAATTTGCATATAATATTTCCTAGTAACTATAGAGGCTTAATGTGCGATAAAAGACAGATAATCTGTTCTTTTTAATACTAGCTACATTTTACATGATAGGCTTGGATTTCTATAAGAGATACAAATACTAAATTATTATTTTAAAAAACAGCACAAAAGGAAACTCACCCTAACTGTAAAGTAATTGTGTGTTTTGAGACTATAAATATCCCTTGGAGAAAAGCCTTGTTTGCCCCAGGGTCTGGTGCGGAGAGGGCCCACAGTGGACTTGGTGACGCTGTATGCCCTCACCGCTCAGCCCCTGGGGAATTCTTCGATTCTGCTTTTTT
B2: U6.mir-675-2.1: mir-675 construct with modified 5' and 3' flanking sequences (nucleic acid)
DNA: TCTAGAGATCCGACGCCGCCATCTCTAGGCCCGCGCCGGCCCCCTCGCACAGACTTGTGGGAGAAGCTCGGCTACTCCCCTGCCCCGGTTAATTTGCATATAATATTTCCTAGTAACTATAGAGGCTTAATGTGCGATAAAAGACAGATAATCTGTTCTTTTTAATACTAGCTACATTTTACATGATAGGCTTGGATTTCTATAAGAGATACAAATACTAAATTATTATTTTAAAAAACAGCACAAAAGGAAACTCACCCTAACTGTAAAGTAATTGTGTGTTTTGAGACTATAAATATCCCTTGGAGAAAAGCCTTGTTTGCCCCAGGGTCTGGTGCGGAGAGGGCCCACAGTGGACTTGGTGACGCTGTATGCCCTCACCGCTCAGCCCCTGGGGTAACTCCTAATCACACTTTTTT
B3: U6.mir-675-2.5: mir-675 construct with modified 5' and 3' flanking sequences (nucleic acid)
DNA: TCTAGAGATCCGACGCCGCCATCTCTAGGCCCGCGCCGGCCCCCTCGCACAGACTTGTGGGAGAAGCTCGGCTACTCCCCTGCCCCGGTTAATTTGCATATAATATTTCCTAGTAACTATAGAGGCTTAATGTGCGATAAAAGACAGATAATCTGTTCTTTTTAATACTAGCTACATTTTACATGATAGGCTTGGATTTCTATAAGAGATACAAATACTAAATTATTATTTTAAAAAACAGCACAAAAGGAAACTCACCCTAACTGTAAAGTAATTGTGTGTTTTGAGACTATAAATATCCCTTGGAGAAAAGCCTTGTTAACGCGAATCACACTGCCCCAGGGTCTGGTGCGGAGAGGGCCCACAGTGGACTTGGTGACGCTGTATGCCCTCACCGCTCAGCCCCTGGGGATACTCCTAATCACACTTTTTT
B4: U6.mir-675-2.3: mir-675 construct with modified 5' and 3' flanking sequences (nucleic acid)
DNA: TCTAGAGATCCGACGCCGCCATCTCTAGGCCCGCGCCGGCCCCCTCGCACAGACTTGTGGGAGAAGCTCGGCTACTCCCCTGCCCCGGTTAATTTGCATATAATATTTCCTAGTAACTATAGAGGCTTAATGTGCGATAAAAGACAGATAATCTGTTCTTTTTAATACTAGCTACATTTTACATGATAGGCTTGGATTTCTATAAGAGATACAAATACTAAATTATTATTTTAAAAAACAGCACAAAAGGAAACTCACCCTAACTGTAAAGTAATTGTGTGTTTTGAGACTATAAATATCCCTTGGAGAAAAGCCTTGTTTGAATCACACTGCCCCAGGGTCTGGTGCGGAGAGGGCCCACAGTGGACTTGGTGACGCTGTATGCCCTCACCGCTCAGCCCCTGGGGATACTCCTAATCACACTTTTTT

Tested on: mir-675-5p
Assay: Small-transcript northern blot of mir-675 processing in HEK293 cells
Format: cell-based, human
Settings: HEK293; anti-mir-675-5p biotinylated probe
Excerpt: Small-Transcript Northern Blots. […] (SEQ ID NO: 148)).

Molecule | mature mir-675-5p bands on northern blot
B1 | detectable mir-675 mature sequences
B2 | detectable mir-675 mature sequences

Tested on: mir-675-5p
Assay: ddPCR of all mature mir-675-5p sequences (TaqMan Advanced miRNA cDNA synthesis) in HEK293 cells
Format: cell-based, human
Settings: not given
Protocol: Digital Droplet PCR (ddPCR). For mir-675 and mi405 constructs, RNA extraction was carried out as described for QPCR above. For cDNA synthesis, the TaqMan advanced cDNA synthesis kit (Thermo Fisher) was used and cDNA was prepared by following manufacturer's instructions. ddPCR was carried out using 1× ddPCR Supermix for probes (No dUTP) (Bio-Rad), 1× commercially available mir-675 advanced TaqMan probe, or a custom made mi405 advanced TaqMan probe (ThermoFisher) and 50 ng of cDNA. For DUX4 cDNA synthesis, the High-Capacity cDNA Reverse Transcription Kit (Applied Biosystems) was used according to manufacturer's instructions. Within the same cDNA reaction, 1×RT random hexamer primers and 25 pmoles of the Oligo(dT) primer were used to generate cDNA for DUX4 and DUX4-responsive biomarkers and for mouse Rpl13A, used as a reference gene. To quantify DUX4, the ddPCR reaction mixture (20 μL) contained 1× ddPCR Evagreen Supermix (Bio-Rad), 1 μM of forward and reverse DUX4 primers (Sharma et al., J Genet Syndr Gene Ther 2016 August; 7(4):303. doi: 10.4172/2157-7412.1000303. Epub 2016 Aug. 8), and 50 ng of cDNA. To quantify Rpl13A and DUX4-responsive biomarkers (Trim36 and Wfdc3), the 1× ddPCR Supermix for probes (No dUTP) and TaqMan specific probes were used for each of the genes. Droplets were generated using the Automatic Droplet generator QX200 AutoDG (Bio-Rad), the reactions were amplified in a C1000 Touch™ Thermal Cycler with 96-Deep Well Reaction Module (Bio-Rad). Cycling conditions were set up following the QX200 ddPCR Evagreen Supermix protocol. All assays are compatible with an annealing temperature of 58° C. Droplets were then read using the QX200 droplet reader (Bio-Rad). Finally, data were analyzed using the QuantaSoft analysis software (Bio-Rad). For quantification, each reaction of 20 μL was estimated to give at least 10,000 acceptable droplets.
In order to quantify the level of all these mature sequences, the TaqMan advanced miRNA cDNA synthesis method that uses universal reverse transcription (RT) chemistry to synthesize cDNA templates that can be quantified using the TaqMan Advanced miRNA probes was used. In this method, most of the processed mature miRNA sequences were quantified.

Molecule | fold change of all mature mir-675-5p sequences compared to U6.mir-675 [%]
B1 | 133±38
B2 | 142±45
B3 | 153±52
B4 | 114±8

Tested on: DUX4 protein
Assay: Western blot of V5-tagged DUX4 protein in co-transfected HEK293 cells
Format: cell-based, human
Settings: CMV.DUX4-FL/CMV.eGFP; HEK293; molar ratio 1 to 3; eGFP normalizer; relative to U6-milacZ; N = 3-8
Protocol: Western Blots. […] 50 mM Tris (pH 7.5-8.0), 150 mM NaCl, 0.1% (v/v) SDS, 0.5% (v/v) deoxycholate, 1% (v/v) triton X-100 (Fisher Scientific) and 1 tablet of protease inhibitor (ThermoFisher Scientific) per 10 mL of buffer. The total protein extract was quantified using the DC Protein Assay (Bio-Rad). Twenty microgram samples were separated on 12% SDS-PAGE, transferred to nitrocellulose membrane, using the wet transfer system, and incubated with the following antibodies: mouse monoclonal antibody to V5 (horseradish peroxidase [HRP]-coupled) [1:5,000 in 5% milk TBST buffer (150 mM NaCl, 50 mM Tris-HCl pH 7.4 and 0.1% Tween 20 (Fisher Scientific)), R961-25; Invitrogen); rabbit polyclonal eGFP antibody (1:50,000 in 3% BSA PBS, ab290; Abcam); mouse monoclonal β-actin antibodies (1:60,000; Sigma, St Louis, MO); overnight at 4° C. When using the eGFP antibody, membranes were blocked 30 mins with 3% BSA PBS prior to blotting. eGFP-probed blots were washed five times, 5 min each with 0.5% Tween 20 (Fisher Scientific) in TBST buffer, and then incubated with HRP-coupled goat anti-rabbit secondary antibody (1:250,000 in 3% BSA PBS, 115-035-144; Jackson ImmunoResearch) for 2 hours at room temperature. V5-probed blots were washed five times, 5 min each with 0.1% Tween 20 in TBST buffer. Following washes, blots were developed using Immobilon Western HRP substrate (Millipore) and exposed to film. DUX4.V5, and eGFP quantification was assessed using ImageJ.

Molecule | Average inhibition efficiency (%) of DUX4 protein levels
B1 | 64 ± 6 (N = 6) %
B2 | 64 ± 4 (N = 8) %
B3 | 56 ± 6 (N = 5) %
B4 | 64 ± 10 (N = 8) %
